From patent US20200024330A1

Legend:
Experiment in all cases: cell-based or functional assay
[1] = target: HIV-1 Env of isolate MGRM-Chronic-B-003 (HIV-1)
[2] = target: HIV-1 Env of isolate MGRM-C-010 (HIV-1)
[3] = target: HIV-1 JR-CSF Env V182A (HIV-1 (isolate JR-CSF)) (UniProt P20871)
[4] = target: HIV-1 Env of isolate MGRM-F1-014 (subtype F), on pseudovirus (HIV-1)
[5] = target: HIV-1 Env of isolate QH0692.42 (HIV-1)
[6] = target: HIV-1 Env of isolate MGRM-F1-006 (subtype F), on pseudovirus (HIV-1)
[7] = target: HIV-1 Env of isolate MGRM-D-003 (HIV-1)
[8] = target: HIV-1 JR-CSF Env I165A (HIV-1 (isolate JR-CSF)) (UniProt P20871)
[9] = target: HIV-1 Env of isolate VLGCB3 (HIV-1)
[10] = target: HIV-1 JR-CSF Env N188A (HIV-1 (isolate JR-CSF)) (UniProt P20871)
[11] = target: HIV-1 Env of isolate MG RM-A-006 (HIV-1)
[12] = target: HIV-1 Env of isolate MGRM-C-027 (HIV-1)
[13] = target: HIV-1 Env of isolate 92UG005 (HIV-1)
[14] = target: HIV-1 Env of isolate MGRM-Chronic-B-001 (HIV-1)
[15] = target: HIV-1 Env of isolate MGRM-A-011 (clade A), on pseudovirus (HIV-1)
[16] = target: HIV-1 Env of isolate MGRM-F1-004 (subtype F), on pseudovirus (HIV-1)
[17] = target: HIV-1 Env of isolate MGRM-AE-005 (CRF01_AE), on pseudovirus (HIV-1)
[18] = target: HIV-1 Env of isolate MGRM-D-021 (HIV-1)
[19] = target: HIV-1 Env of isolate MGRM-AG-002 (CRF_AG), on pseudovirus (HIV-1)
[20] = target: HIV-1 Env of isolate MGRM-AG-003 (CRF_AG), on pseudovirus (HIV-1)
[21] = target: HIV-1 Env of isolate MGRM-C-017 (HIV-1)
[22] = target: HIV-1 Env of isolate MGRM-D-002 (HIV-1)
[23] = target: HIV-1 Env of isolate 92WR026 (HIV-1)
[24] = target: HIV-1 Env of isolate PVO.4 (HIV-1)
[25] = target: HIV-1 MGRM-Chronic-B-001 Env (pseudovirus) (HIV-1)
[26] = target: HIV-1 Env of isolate MGRM-F1-023 (HIV-1)
[27] = target: HIV-1 Env of isolate MGRM-C-010 (pseudovirus) (HIV-1 isolate MGRM-C-010, subtype C)
[28] = target: HIV-1 Env of isolate MG RM-D-004 (subtype D) (HIV-1)
[29] = target: HIV-1 JR-CSF Env E172A (HIV-1 (isolate JR-CSF)) (UniProt P20871)
[30] = target: HIV-1 Env of isolate MGRM-C-007 (pseudovirus) (HIV-1 isolate MGRM-C-007, subtype C)
[31] = target: HIV-1 92BR020 Env (pseudovirus) (HIV-1)
[32] = target: HIV-1 Env of isolate MGRM-F1-020 (HIV-1)
[33] = target: HIV-1 Env of isolate MGRM-F1-016 (HIV-1)
[34] = target: HIV-1 Env of isolate MG RM-D-019 (subtype D) (HIV-1)
[35] = target: HIV-1 Env of isolate MGRM-AE-003 (HIV-1)
[36] = target: HIV-1 94UG103 envelope glycoprotein (Env) (HIV-1)
[37] = target: HIV-1 93IN905 Env (HIV-1)
[38] = target: HIV-1 93MW959 envelope glycoprotein (Env) on pseudovirus (HIV-1)
[39] = target: HIV-1 Env of pseudovirus CAAN.A2 (Acute), clade B (HIV-1)
[40] = target: HIV-1 APV-17 envelope protein (Env) on pseudovirus (HIV-1)

Sequence of 5329_C19 (PGT-136) (antibody) (VH): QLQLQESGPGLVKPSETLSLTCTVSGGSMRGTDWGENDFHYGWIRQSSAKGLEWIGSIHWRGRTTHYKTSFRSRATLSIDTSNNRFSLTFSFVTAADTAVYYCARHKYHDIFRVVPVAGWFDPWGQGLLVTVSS
Sequence of 5329_C19 (PGT-136) (antibody) (VL): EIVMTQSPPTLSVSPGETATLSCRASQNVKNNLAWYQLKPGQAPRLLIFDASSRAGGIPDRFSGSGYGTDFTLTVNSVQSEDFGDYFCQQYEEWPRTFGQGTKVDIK

5136_H01 (PGT-131) (antibody)
IC50 [1]: > 50 µg/mL
IC50 [2]: > 50 µg/mL
Fold IC50 increase relative to wild-type [3]: 1.1 fold
IC50, pseudovirus neutralization [4]: > 50 µg/mL
IC50 [5]: > 50 µg/mL
IC50, pseudovirus neutralization [6]: > 50 µg/mL
IC50 [7]: 19.6 µg/mL
Fold IC50 increase relative to wild-type [8]: 2.4 fold
IC50 [9]: > 50 µg/mL
Fold IC50 increase relative to wild-type [10]: 0.9 fold
neutralization IC50 [11]: > 50 µg/mL
IC50 [12]: 0.065 µg/mL
IC50 [13]: 0.854 µg/mL
IC50 [14]: > 50 µg/mL
IC50, single-round pseudovirus neutralization [15]: > 50 µg/mL
IC50, pseudovirus neutralization [16]: 0.114 µg/mL
IC50, single-round pseudovirus neutralization [17]: 0.017 µg/mL
IC50 [18]: 0.106 µg/mL
IC50, single-round pseudovirus neutralization [19]: > 50 µg/mL
IC50, single-round pseudovirus neutralization [20]: 2.92 µg/mL
IC50 [21]: > 50 µg/mL
IC50 [22]: 11.2 µg/mL
neutralization IC50 [23]: 0.041 µg/mL
IC50 [24]: > 50 µg/mL

5145_B14 (PGT-127) (antibody)
IC50, pseudovirus neutralization [25]: > 50 µg/mL
IC50 [26]: 0.119 µg/mL
Fold IC50 increase relative to wild-type [3]: 1.6 fold
IC50 (µg/mL) neutralization [27]: > 50 µg/mL
IC50 (µg/mL), pseudovirus neutralization [28]: > 50 µg/mL
Fold IC50 increase relative to wild-type [8]: 1.7 fold
Fold IC50 increase relative to wild-type [29]: 2.1 fold
Fold IC50 increase relative to wild-type [10]: 0.8 fold
IC50 (µg/mL) neutralization [30]: > 50 µg/mL
IC50, pseudovirus neutralization [31]: 0.059 µg/mL
IC50 [32]: > 50 µg/mL
IC50 [33]: > 50 µg/mL
IC50 (µg/mL), pseudovirus neutralization [34]: > 50 µg/mL

5329_C19 (PGT-136) (antibody)
IC50 [1]: > 50 µg/mL
IC50 [2]: > 50 µg/mL
IC50, pseudovirus neutralization [4]: > 50 µg/mL
IC50 [5]: > 50 µg/mL
IC50, pseudovirus neutralization [6]: > 50 µg/mL
IC50 [7]: > 50 µg/mL
IC50 [9]: > 50 µg/mL
neutralization IC50 [11]: > 50 µg/mL
IC50 [12]: > 50 µg/mL
IC50 [13]: > 50 µg/mL
IC50 [14]: > 50 µg/mL
IC50, single-round pseudovirus neutralization [15]: > 50 µg/mL
IC50, pseudovirus neutralization [16]: > 50 µg/mL
IC50, single-round pseudovirus neutralization [17]: > 50 µg/mL
IC50 [18]: > 50 µg/mL
IC50, single-round pseudovirus neutralization [19]: > 50 µg/mL
IC50, single-round pseudovirus neutralization [20]: > 50 µg/mL
IC50 [21]: > 50 µg/mL
IC50 [22]: > 50 µg/mL
neutralization IC50 [23]: > 50 µg/mL
IC50 [24]: > 50 µg/mL

PGT-121 (antibody)
IC50 (µg/mL), pseudovirus neutralization [35]: > 50 µg/mL
IC50 neutralization [36]: 1.38 µg/mL
IC50 (µg/mL), pseudovirus neutralization [23]: 0.014 µg/mL

4838_L06 (PGT-121) (antibody)
IC50, pseudovirus neutralization [25]: 0.102 µg/mL
IC50 [26]: 0.097 µg/mL
IC50 (µg/mL) neutralization [27]: > 50 µg/mL
IC50 (µg/mL), pseudovirus neutralization [28]: > 50 µg/mL
IC50 (µg/mL) neutralization [30]: 0.196 µg/mL
neutralization IC80 [31]: 0.0532 µg/mL
neutralization IC90 [31]: 0.101 µg/mL
IC50 [32]: 0.167 µg/mL
IC50 [33]: 0.931 µg/mL
IC50 (µg/mL), pseudovirus neutralization [34]: > 50 µg/mL

1496_C09 (PG9) (TCN-109) (antibody)
IC50 (µg/mL), pseudovirus neutralization [35]: 0.044 µg/mL
IC50 (µg/mL), pseudovirus neutralization [7]: 0.033 µg/mL
IC50 (µg/ml), pseudovirus neutralization [36]: 0.24 µg/mL
IC50 neutralization [36]: 0.31 µg/mL
IC50 [37]: 0.03 µg/mL
IC50 (µg/ml), pseudovirus neutralization [38]: 0.04 µg/mL
IC50 (µg/ml), pseudovirus neutralization [39]: 5.67 µg/mL
IC50 (µg/mL), pseudovirus neutralization [33]: 0.518 µg/mL
neutralization IC50 [40]: 26.4 µg/mL
IC50 (µg/mL), pseudovirus neutralization [22]: 0.021 µg/mL

4877_D15 (PGT-122) (antibody)
IC50, pseudovirus neutralization [25]: 0.138 µg/mL
IC50 [26]: 0.154 µg/mL
IC50 (µg/mL) neutralization [27]: > 50 µg/mL
IC50 (µg/mL), pseudovirus neutralization [28]: > 50 µg/mL
IC50 (µg/mL) neutralization [30]: 3.35 µg/mL
IC50, pseudovirus neutralization [31]: 0.021 µg/mL
IC50 [32]: 0.321 µg/mL
IC50 [33]: 4.81 µg/mL
IC50 (µg/mL), pseudovirus neutralization [34]: > 50 µg/mL
